Assay results from the supplement of paper PMC9170038.

Tested on: K4 kissing-loop RNA reporter
Assay: apparent KD of K4 kissing-loop reporter; higher = weaker reporter binding
Details: Eterna round: R107
Description: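 RNA-MaP round R107: designed RNA switches with theophylline, tryptophan, arginine or FMN aptamers are transcribed on-chip within common flanks. They are titrated with a labelled K4 kissing-loop RNA reporter in RNA-MaP buffer (100 mM Tris pH 7.5, 80 mM KCl, 4 mM MgCl2), without ligand or with the indicated ligand. Median apparent KD per design.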

[1] = input ligand: theophylline 20 uM
[2] = input ligand: tryptophan 2.4 mM
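Further: bound reporter read as fluorescence of individual clusters on recovered sequencing chips by microscopy, with normalized cluster intensities fitted with a binding model.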

Sequence	apparent KD of K4 kissing-loop reporter (input ligand: FMN 200 uM)	apparent KD of K4 kissing-loop reporter (input ligand: arginine 13.2 mM)	apparent KD of K4 kissing-loop reporter (input ligand: none)	apparent KD of K4 kissing-loop reporter [1]	apparent KD of K4 kissing-loop reporter [2]
AGCAAAACCAAAGGAUAUUGGCAGUCGAUGUACCAUGUUCCCGUAGCAGGUUGAGUGAUGUUUAAGCAAGAAGGUUGGCGUUUGG [theeternabot_exclusion_KL_FMN_B_12]	560 nM	302 nM	436 nM	457 nM	368 nM
UACUAUAGUGAUGUUAUAGAUAAACCAGAUACCAGUGUAACAUAACACCCUUGGCAGCUGAUGAGGGAAGAUAUCAAAAGAUAUC [AstroSTH-A#9newdesignED4.70]	218 nM	218 nM	202 nM	247 nM	199 nM
GCAGUGAUGUUGCUGAUGUACAGUGGGAUACGAGGACCGGUACGGCCGCCACUCGUACAGAACUUGUUAAUACAUCGAUAGGUGA [XIII]	702 nM	759 nM	880 nM	837 nM	564 nM
AUUAUCAAUUUAUUAUAUAACUUUUCAGAAGGAGCGUGGAAGUACACAGGUAGGUCGCUGAAUAUAGGACUAGUGAUGUUAGUUA [JR_Nu_SSArginiA_Sub024]	236 nM	221 nM	266 nM	298 nM	248 nM
GAGGUACAGGCGGCCGCCACUAGUGAUGUUAGUGAUGUUUGAUACUGUAUAUAUCGGCGUGUAGAUAGGACCGGGCCUGAUGGAG [znmkmullin]	122 nM	78.7 nM	100 nM	109 nM	91.8 nM
UGUAUGUGAUUUGAUACCAGACCAGCUGGUGGUGUAUGAGUGAUGUUCAUGCUGGUUUGGGUCCCUUGGCAGCAAAUCGCAUACU [KL-SSTheoB29]	10.6 nM	6.48 nM	8.46 nM	7.6 nM	8.89 nM
ACGUCACGUAUACUGGUGGUUUCGAUCGAUACCAGUAGCGAGAGUUACCCUUGGCAGCGACAUGAGUGAUGUUCAUGUAUGAAGA [KL-XTheo-A1 #analogue]	100 nM	111 nM	102 nM	113 nM	95.7 nM
UUAGAUCAAAGAUCAGUCUUAUUGAGAGAACGAGGACCGGUACGGCCGCCACUCGAGUGAUGUUCGAGAACUCUCUUGACAAAUU [AK1 EXC Tryptophan A]	158 nM	150 nM	169 nM	133 nM	258 nM
CGCAAGCAGCCAGUGAUGUUGGCCGCCUUGCGAGGACCGGUACGGCCGCCACUCGAAGGCGGCUACUAGUAAACCGCCUAACGGA [KL-XTryp-A17]	105 nM	91.1 nM	95.6 nM	81.2 nM	184 nM
UACAAACGUAGUGAUGUUACGUACUCUGAUACCAGACAACUCUAAGUCCCUUGGCAGCAGUCACUUAGCUUAUUAUUUUCUCAAA [JR_Nu_ExcTheophyA_Sub026]	106 nM	134 nM	116 nM	130 nM	103 nM
GGGUCUGCCGGAAGGAGCGCACUAUGGAGUGAUGUUCCAUGACCGCACAGCUUGCGGUCAGUGCAGGUAGGUCGCCGGUAGCGUU [Inesor]	163 nM	154 nM	175 nM	177 nM	162 nM
CCGGGCGGCUGAAGGAGCGGGCGGGCCCGAGUGAUGUUCGGGUGGGCCGUGAGGCCCGGAGCCCAGGUAGGUCGCGGUUCCGUCC [#2 Same State - Arginine B Attempt #18 (HarryS)]	201 nM	139 nM	167 nM	196 nM	140 nM
GAAAGAAAGAAUGAUACCAGACACCCGAGUGAUGUUCGGAGCAGAGUGAUGUUCUUUUAAGUCCCUUGGCAGCAUAAAAGAAAAG [whbob_SS_Theo_B_sa82]	109 nM	138 nM	153 nM	159 nM	119 nM
AAGCAGUCACUCGACGCCAUCGAAGAUGGGCGAGGACCGGUACGGCCGCCACUCGGAGUGAUGUUCCGAAGACUGCAAAAUAAAA [MatMod 6 - Jieux - Exclusion - Tryptophan A]	356 nM	317 nM	384 nM	329 nM	480 nM
ACCGCAUUGGGAUGAUCCCAAUGCGCUGGUCGAGGACCGGUACGGCCGCCACUCGUCCAGUGAUGUUGGAAUUGGGCUACUGAAG [KL-XTryp-A11]	134 nM	86.7 nM	183 nM	195 nM	61.1 nM
AGUGCACUGUCAGGAUAUAUACAGUGAUGUUGUGUAUGUCGGCAAGUCAAAGACUUGCCAUUCUGUGUAGAAGGGACUGUGUACA [#04 K4 FMN B Exclusion]	544 nM	203 nM	222 nM	202 nM	223 nM
AUUGCGGCCGUUCUAUCACCAGGCGGAGAUACCAGAUGCCAGCAGAUCCCUUGGCAGCUCUGCACGAGAUCCAGUGAUGUUGGGU [theeternabot_exclusion_KL_Theo_A_9]	319 nM	239 nM	320 nM	288 nM	276 nM
CGUAGCAGACGAAGGAGCGGCUACCUGAUUCAAGGUGAUGCUUGAGUGAUGUUCAGGUGUAGCCAGGUAGGUCGCGUCUGCUACG [Arg B Ex t9]	201 nM	144 nM	164 nM	180 nM	170 nM
GGACACUAGGAAACUAGUGUCUCAACUGAAGGAGCGUGAAUAGUCACAGGUAGGUCGCAGUUUGUUAGUGAUGUUGACAUGAGUU [#16 K4 Arginine A Same State]	302 nM	394 nM	514 nM	439 nM	277 nM
AAAUAGAUCAGUCACCCAGUGAUGUUGGAAGGAGCGUGCGAAAGCACAGGUAGGUCGCCAGAAUAAAAGUGGCUGAUCAAAAUAA	512 nM	358 nM	519 nM	513 nM	366 nM
UGUAUGUGAUUUGAUACCAGACCAGCUGGUGGUACCUGAGUGAUGUUCGGGAUGGUCUGGGUCCCUUGGCAGCAAAUCGCAUACU [KL-SSTheoB21]	295 nM	175 nM	254 nM	212 nM	212 nM

Sequence	apparent KD of K4 kissing-loop reporter (input ligand: FMN 200 uM)	apparent KD of K4 kissing-loop reporter (input ligand: arginine 13.2 mM)	apparent KD of K4 kissing-loop reporter (input ligand: none)	apparent KD of K4 kissing-loop reporter [1]	apparent KD of K4 kissing-loop reporter [2]
GGAUAGGACAGAGGAUAUGGAGAGUCUACAAAGUAGGCUCAUAAUCCUUGAAUGGAAGUGAUGUUUCCAGAAGGCUGUCCUAUCG [FmnBX 17 - #SwitchBubble #StaticStem #Palindromic]	664 nM	99.9 nM	103 nM	101 nM	119 nM
GGAGUUACCUGGGAUACCAGUCGGAGGCCCAGAGCUCGGAGUGAUGUUCUGGGAUGUUUCGGCCCUUGGCAGCUCUGGGUCUCCC [#2 Exclusion - Theophylline B Attempt #7 (HarryS)]	1690 nM	563 nM	1040 nM	895 nM	718 nM
AUAUCUGAUAGCAGUGAUGUUGCUUCAGAUACCAGACGAGAUCAUGUCCCUUGGCAGCUGACACGGCACGUGCUAGGUUAGAUGA [Theo A Ex t2]	101 nM	92.6 nM	101 nM	103 nM	101 nM
UCGCAAGAAUCACUGUGGAGGACCUUGGCCAAGGAUAUCAAAGGAUUGAGAAGGUGGCGCCAAGUGAUGUUUGGAUGCCGGGCAG [theeternabot_exclusion_KL_FMN_A_36]	149 nM	286 nM	293 nM	183 nM	256 nM
UGGAGUUGACGAAAAGUCAACUCCUGAGAAGGAGCGGACGAAAGUCCAGGUAGGUCGCUCACUACCAGUGAUGUUGGUACUUAAA [#OpenEnded 4]	152 nM	235 nM	198 nM	228 nM	192 nM
UGGAUAUAGUGAUGUUAUAUAGAGAGUGAUACCAGUUUAGAGAAGAACCCUUGGCAGCAUAAAGAAGUAUCAUUAGAGAAGAAUG [ExTheophyl.Ao]	229 nM	216 nM	282 nM	224 nM	176 nM
AGUGUUAGGUUAGAUACCAGCCGUCUGUGGAUAAUCCACAGACCGCCAGUGAUGUUGGCAGGCCCUUGGCAGCUAACAGGACAGA [Riedingeus]	239 nM	215 nM	220 nM	153 nM	208 nM
AAAUAGAUCAGUCACCCAGUGAUGUUGGAAGGAGCGUGCGAAAGCACAGGUAGGUCGCCAUAAUAAAAGUGGCUGAUCAAAAUAA	446 nM	287 nM	487 nM	534 nM	310 nM
GCAACAUUGGGAGGAUAUCAUUCUGAGUGAUGUUCAGGGUUCAGCUAACGAAAGUUAGUUGUACCAUGAGAAGGUCUAAUGUUGC [Omei KL FMN B SS A v6]	342 nM	975 nM	1180 nM	1020 nM	1150 nM
UGUACCGAGUGAGGAUAUGUCGUCGAAAGACGAAAUGGAGUGAUGUUCCUUAAACUGCGAAAGCAGACAGAAGGUACUUGGUACU [FmnBS 29 G11+U75]	144 nM	298 nM	302 nM	312 nM	275 nM
GUGCAAAGCACCGGCACGAGCAGCUUAAAGGAGGAUAUGACGAAAGUCAGAAGGUUUAGUGAUGUUAGGCCUUGCUUGAGUCGAA [#01 K4 FMN A Exclusion]	326 nM	265 nM	282 nM	413 nM	270 nM
CAGCGGAGUGAUGUUCUGCUUACUGCGGAUACCAGCUUCGCCAGAGGCCCUUGGCAGCCGGGCGGCUCAGUGAUGUUGGGUUGCU [Same State Theophylline A GF 15]	536 nM	559 nM	876 nM	920 nM	664 nM
UCGCCCGAUGGAGAUACCAGCAGUUGUGCAGUGAUGUUGCACAAGUACUCGCUCCAUUGCUGCCCUUGGCAGCUCCCGGCAAACA [Enraed]	93.3 nM	85 nM	87.6 nM	82.8 nM	89.3 nM
GCCUACGAUGCAGGAUAUAGCUCGCGAGUGAUGUUCGCAGCUGUAUGGUAGUAAGCUUCCACGUGUCUAGAAGGGCAUCGUAGGC [#01 K4 FMN B Exclusion]	131 nM	80.2 nM	93.6 nM	83.3 nM	88.7 nM
CGCCGCAAGGCGGGCCGGCCCACUCCGGAAGGAGCGCCCGCAAGGGCAGGUAGGUCGCCGGAGUGAUGUUCCGGUGGCCGGCCCG [#2 Exclusion - Arginine A Attempt #3 (Inspired by Omei)]	433 nM	244 nM	376 nM	592 nM	354 nM
GCUAUGGUAGGAAGGAGCGCUUGCUCGGUCAUAAGAGUGAUGUUCGAGACCGAGCAUUUAUAGCAGGUAGGUCGCCUACUAUAGC [Arginine B K4 7]	310 nM	194 nM	200 nM	256 nM	250 nM
UGUGUUGUUUUGAUGUUUGGUGUUUGUUGGCAGGAUAUCGUAGAGGCGAGAAGGGCUUGGGAGCGGUAUGAGUGAUGUUUGUAGG [deedwrmullin]	373 nM	186 nM	364 nM	302 nM	245 nM
GAGGUACAGGCGGCCGCCACUAGUGAUGUUAGUGAUGUUAGAUAAAGUAUAUAUCGGCGUGUAGAUAGGACCGGGCCUGAUGGAG [ssrykmullin]	49 nM	33.6 nM	60 nM	42 nM	53.9 nM
AAACAUUGGUGCGAUACCAGCUGAUCGGAAACGAUCAUGCUGGAGUGAUGUUCCAGGAAAAGCCCUUGGCAGCGCACCGAUGAAA [MAT - Same State Theophlline B - Mod of Eli - D29]	128 nM	79.8 nM	78.5 nM	275 nM	95.9 nM
ACGAUUUACAGAAGGAGCGUGUAUUUAUCUACAAUUUUCUUAGCGAGUGAUGUUCGUUAUACACAGGUAGGUCGCUGUAUAUCGA [JR_ExcArginiB_Sub013]	185 nM	214 nM	201 nM	199 nM	174 nM
UCGAGUGAUGUUCGAUUUCAGUGAAGAGAUACCAGCCGCAGUGUAGGCCCUUGGCAGCUCGGCUAUUAUGACAUAUGCAGUUUAG [theeternabot_sameState_KL_Theo_A_29]	125 nM	121 nM	119 nM	122 nM	80 nM
